The source of these data is patent US20170226155A1 (TRUSTEES OF TUFTS COLLEGE, published 2017).

Where no end group is shown, it is not given here. [ ]: non-standard residue; d: D form. The star is where a group is joined. boroPro = OB(O)[C@@H]1CCCN1*

The target of assay [1] is Dipeptidyl amino peptidase type IV (DPP IV). In words: cell-based or functional assay.
For assay [2] the target is unchanged. The experiment in a line: cell-based or functional assay. The source holds these as a separate data set.

B1: TyrProPheboroPro (peptide)
peptide: YPF[boroPro]
Turning to B1, in assay [1], 50 nM corresponded to half-maximal inhibition (IC50 at ten minutes, pH 2) and the 50% inhibitory concentration (IC50) at ten minutes, pH 8 is 60 nM.

B2: AlaAlaProboroPro (peptide)
peptide: AAP[boroPro]
For B2, in assay [1], the midpoint of inhibition, the IC50 at ten minutes, pH 2, lay at 3 µM. Also, in assay [2], the “IC50, pH 2 (Tetrapeptide Prodrugs)” value came out at 3 mM and the “IC50, pH 8 (Tetrapeptide Prodrugs)” value came out at 2 mM.

The IC50 is the concentration at which inhibition is half-maximal. A low value points to higher potency.
